Experimental data: the supplement of paper PMC9170038

What was measured:
MS2 coat protein [1] = test: apparent KD of MS2 coat protein, switch ON state; designed switch direction (-1 OFF switch, 1 ON switch): 1; higher = weaker reporter binding; settings: FMN input: 0 or 200 uM; Eterna round: R93 (includes R88 designs)
Method in brief: (§1)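 Apparent KD per design is the median of normalised cluster binding-curve fits. Designed RNA switches transcribed on-chip from Illumina sequencing clusters were titrated with SNAP-549-labelled MS2 coat protein in twofold steps from 0.7 or 1.5 nM to 3 µM, with 0.8–1.5 h down to 10–20 min per step. Buffer: 100 mM Tris-HCl pH 7.5, 80 mM KCl, 4 mM MgCl2, without or with constant ligand.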

MS2 coat protein [2] = test: apparent KD of MS2 coat protein, switch OFF state (with FMN for OFF switches, without FMN for ON switches); designed switch direction (-1 OFF switch, 1 ON switch): 1; higher = weaker reporter binding; settings: FMN input: 0 or 200 uM; Eterna round: R93 (includes R88 designs)
Method in brief: as §1

Sequence	apparent KD of MS2 coat protein (MS2 coat protein [1]) [nM]	apparent KD of MS2 coat protein (MS2 coat protein [2]) [nM]
AAAUAAAGGACUAAGGAUAUAUCACAUGAAACAUGAGGAUCACCCAUGUAAUAAUACAAAGGGUGAUAGAAGGUAGUCCACAAACA [Pariah 5 (MS2 Riboswitches - Same State 2)]	14.9	37.1
UGGAGACAUGAGGAUCACCCAUGUGAGAAGAGGCGAGGAUAUCGAAAAAAAAAAAAAAAACGAGAAGGCGCGAGAA [salish99-SS1-007]	28.9	56.3
GAGGACCUAGGAUAGGAUAUGUGAAUAAUUACAUGAGGAUCACCCAUGUCCAUUUAUAUGGGAACAUAGAAGGGUUCUGGUUAUC [SameState2 Malc#38]	51.8	71.9
AAACCACAUGAGGAUCACCCAUGUCCAAAAAAACAAGGAUAUAUAAAAAAAAAAAAAAAAAUAGAAGGUGUAAAAA [<insert title here>]	75.5	113
AAGAAACAUGAGGAUCACCCAUGUAAGAUUAUGGGAGGAUAUGCGAAAAGAAACAAAGAAGCAGAAGGCCUAAGAA [75%, Ex5 sub 1, 4]	15.7	77.3
AGAAGACAUGAGGAUCACCCAUGUGGGAUUAUGGGAGGAUAUACAAAGACGAGAGUCAGAGUAGAAGGCCUAGGAA [salish99-ss1-112(!!!!!)]	29	70.5
UCGUCCUCGUGCUAGGAUAUCCAUCGUAAAACAUGAGGAUCACCCAUGUAGAAAUGCGCCUACGAGGAGAAGGAGCGAUGUGGAU [Velemageer]	14.9	19
AUAAUAAGAAGCUAGGAUAUGCUAAAGUAAACAUGAGGAUCACCCAUGUAAAGAAAAAAACUCAUGUAGAAGGAGCAGAAAUAAA [moonwalk 6]	99.1	106
GUGUAAAGAAUCGAGGAUAUCCAAAAAAGCACAUGAGGAUCACCCAUGUAAGAGAGAGAAUAAUGGGAGAAGGCGAGUUAUCGGU [JR_SS002_Sub1712]	18.1	64.1
CUUUCCGCGCUAUAGGAUAUGAAUGAACCUACAUGAGGAUCACCCAUGUCGAACUCGGUCCAAAAUCAGAAGGAUGGCGAGGCGC [Oratis]	119	178
UUACAGCACAGGUAGGAUAUGUAGGGUGGUACAUGAGGAUCACCCAUGUAUCCACCCUUCGAAAGGCAGAAGGGCCUGUCGCCGC [Leanisqube]	13.1	15
AAAAGACAUGAGGAUCACCCAUGUAAAAACAUAGGAGGAUAUGUCUUGAAAAAAGACUUGACAGAAGGCCUUUGUC [SS1 - 52]	39.5	75.2
GGGAGGAAGAGAGAGGAUAUCCAAAGGAAAACAUGAGGAUCACCCAUGUAAAAGGUAGGAAAUUGGGAGAAGGCUCAAGAGAACG [salish99-ss2-056]	25.5	28.9
AAAGAAAAACUAGAGGAUAUCCGAGUGGUAACAUGAGGAUCACCCAUGUGACGAAAGGAACAUGAGGAGAAGGCUAGAAGAAAAA [JL Nando mod 9]	46.3	315
AGCAUCACCAGUCAGGAUAUGUAGGCCUUGACAUGAGGAUCACCCAUGUGGACGAAACACCGGCCACAGAAGGGAUUGUAAAUAA [Ries]	434	67.4
AAAACACAUGAGGAUCACCCAUGUAGAAAUACGGGAGGAUAUGCGAAAACGAAAGACAAAGCAGAAGGCCUAAAAG [saturn 6]	12.3	35
CCCUCGCAAUAACAGGAUAUACAUGGUCAAACAUGAGGAUCACCCAUGUGAGGAAGUUGGCGGUCGUAGAAGGGUUGUUGGCUCA [Beisvesoqu]	42.8	166
AUAAAAUAAAGUCAGGAUAUCUAUAAUAAAACAUGAGGAUCACCCAUGUUAAAAAAAAGAUCAUGGGAGAAGGGACAAAAUAAAU [SS2 M 32]	27	28.3
AAAAAAAAAAGUCAGGAUAUACAAAUUUUUACAUGAGGAUCACCCAUGUUAAGGAAAAAAAAAAAGUAGAAGGGACAAAAAAAAAA [Same State 2 - Omei 3]	15.3	21.4

Sequence	apparent KD of MS2 coat protein (MS2 coat protein [1]) [nM]	apparent KD of MS2 coat protein (MS2 coat protein [2]) [nM]
AAAGACGUGCAUCAGGAUAUGUUCCGAGACACAUGAGGAUCACCCAUGUGGACGAAGUCUCGGGCACAGAAGGGAUCACUCAUAA [Latibe]	15.4	21.4
AAUAAUUAUAUGGAGGAUAUCCGUAAUAAGACAUGAGGAUCACCCAUGUAAUAAGGUUAAAUAAAGGAGAAGGCCAAGGGUGAAA [JR_SS002_Sub004]	129	344
CGGAAGGAGAGAGAGGAUAUCCAAAGGAAAACAUGAGGAUCACCCAUGUAGAAGGUAGGAAAUUGGGAGAAGGCUCAAGAGACAG [salish99-ss2-125]	25.3	55.9
AAACUGGAGGACAAGGAUAUGUGCUCUACGACAUGAGGAUCACCCAUGUGAGACGUAGUAGUGAAACAGAAGGUGUCCUAUUGUA [Tiarri]	11	20.4
GAGGACAUAGUACAGGAUAUAUGAAUAGUCACAUGAGGAUCACCCAUGUCCAUUUAUAUGGGCACAUAGAAGGGUGGUAGUUAUC [SameState2 Malc#27]	24.6	347
AAGAAACAUGAGGAUCACCCAUGUAGAAACAUGGGAGGAUAUACAAAGACGAAAGUCAAAGUAGAAGGCCUAAAAA [Mat - Same State 1 - Mod - D165]	88.6	141
AAAUAAAUGACUAAGGAUAUCUCAGAGAAAACAUGAGGAUCACCCAUGUAAUAAUAACAUGUGUGAGAGAAGGUAGUCAACAAAC [Same State 2.4 (Pariah 4 -changed stack on 9nt hairpin)]	16.1	70.1
AAAAGACAUGAGGAUCACCCAUGUGAAAACGUAGGAGGAUAUGUCUGGAAACCAGACUGGACAGAAGGCCUGUGUC [SS1 - 32]	26.7	33.1
AAAAUAAAAUAAAAGGAUAUAAAAUAAAAAACAUGAGGAUCACCCAUGUAAAAACAUGGGAAAAAAAAGAAGGAAAAAUAAAAAA [SS2: 71 No MS2]	603	1280
AAAAAACAUGAGGAUCACCCAUGUAAUAAAACGUCAGGAUAUUGAUUUUAUUAUUUAUUACAAGAAGGGACAAAAA [Same State 1 - Omei 1]	35	55
CGGAAGGAGAGAGAGGAUAUCCAAAGGAAAACAUGAGGAUCACCCAUGUAGAAGGUAGGAAAUUGGGAGAAGGCUCAAGAGAUAG [salish99-ss2-124]	20.6	39.1
AAAAAACAUGAGGAUCACCCAUGUAAAAAAAUCGCAGGAUAUACGGUCGCGAAAGCGACCGUAGAAGGGCGAUCCU [Louisiana 3 - Jieux - Same State 1]	59.1	75.3
AAAAGACAUGAGGAUCACCCAUGUCCUCGGACAUGAGGAUAUGUACAGACUUCGGUCUGUACAGAAGGCAUAAAAA [SS1 - 1063]	71.2	349
AAAAUACAUGAGGAUCACCCAUGUGAAAAUAUGGGAGGAUAUACCGAAAAAAAAAAAAAGGUAGAAGGCCCAAAAA [SS! 1 MT 5]	17.1	69.2
AACAGACAUGAGGAUCACCCAUGUAGAAUUAUGGGAGGAUAUACAAAGACGAGAGUCAGAGUAGAAGGCCUAGGAA [salish99-ss1-165]	22	89.7
GGCUGCAAUUAUGAGGAUAUGUUCGGAUGAACAUGAGGAUCACCCAUGUGGCGAUAGCUAUCUGUGCAGAAGGUGUAGUGGUAGC [Edlexete]	38.8	130
GGGAGACAUGAGGAUCACCCAUGUAGAAGGAUGGGAGGAUAUACAAAGACGAGAGUCAGAGUAGAAGGCCUAGGAA [salish99-ss1-189-4KCAL]	29	58.5
AAAAAAAAAACGCAGGAUAUCCAAAAAAAAACAUGAGGAUCACCCAUGUAAAAAAAAAAAAAAUGGGAGAAGGGUGAAAAAAAAAA [Louisiana 6 - Jieux - Same State 2]	49.9	114
AGAAAGAAAAGAGAGGAUAUCUAAAAGAAAACAUGAGGAUCACCCAUGUAAAAGAAAAGAAAAUGGGAGAAGGCUUAUGAGAAAG [JL Skelter Mod 8 In the Red]	107	82
